{"source": "patent US20210401986A1", "biological_target": "cetuximab (unconjugated anti-EGFR antibody)", "assay": "cell-based or functional assay", "data": [{"substance": "AffiniPure Donkey Anti-Human IgG, Fcγ Fragment Specific (DxHu) antibody conjugated with IRDye 700DX", "values": [{"measurement": "percent cell death of BxPC3 cells (CellTox Green) after sequential labeling and 690 nm light at 16 J/cm^2", "value": 90, "unit": "%"}]}]}
